{"source": "FireProtDB (doi:10.1016/j.jmb.2009.04.075)", "conditions": "Saccharomyces cerevisiae (strain ATCC 204508 / S288c); pH 7; 25 °C; GdnHCl; CD; Tris 20 mM; NaCl 40 mM; reversible: Yes", "note": "Several values for one entry are separate records, joined by “and”; a condition that tells them apart may be missing. Equal entries are not always repeated.", "data": [{"substance": "Cytochrome c isoform 1 wild type, P00044", "values": [{"measurement": "denaturant midpoint (higher = more stable)", "value": "0.49 M and 0.45 M"}]}]}
